B1: DHFR-GRR (other)
chain: MISLIAALAVDRVIGMENAMPWNLPADLAWFKRNTLNKPVIMGRHTWESIGRPLPGRKNIILSSQPGTDDRVTWVKSVDEAIAACGDVPEIMVIGGGRVYEQFLPKAQKLYLTHIDAEVEGDTHFPDYEPDDWESVFSEFHDADAQNSHSYCFEILERRPRDSFGGGSGAGAGGGGMFGSGGGG
B2: DHFR-eRR (other)
chain: MISLIAALAVDRVIGMENAMPWNLPADLAWFKRNTLNKPVIMGRHTWESIGRPLPGRKNIILSSQPGTDDRVTWVKSVDEAIAACGDVPEIMVIGGGRVYEQFLPKAQKLYLTHIDAEVEGDTHFPDYEPDDWESVFSEFHDADAQNSHSYCFEILERRPRGGGGAWLLPVSLVRRRTTLAPNTQTASPRALADS
B3: DHFR-35 (other)
chain: MISLIAALAVDRVIGMENAMPWNLPADLAWFKRNTLNKPVIMGRHTWESIGRPLPGRKNIILSSQPGTDDRVTWVKSVDEAIAACGDVPEIMVIGGGRVYEQFLPKAQKLYLTHIDAEVEGDTHFPDYEPDDWESVFSEFHDADAQNSHSYCFEILERRPRLRYQPLLRISQNCEAAILRASQTRLNTIHHHHHH

This assay addresses purified S. cerevisiae proteasome (S. cerevisiae). Nature of the assay: competitive inhibition of proteasomal degradation of a fluorescent substrate; apparent Ki; DHFR-tail competitor varied, UbL-GFP-95 substrate, 40 nM purified yeast proteasome; loss of GFP fluorescence in 384-well plates; 30 °C (methods; the legend of Figure 7 says room temperature); 50 mM Tris, 5 mM MgCl2, 2.5% glycerol, 1 mM ATP, 4 mM DTT, 0.2 mg/ml BSA, 10 mM creatine phosphate, 0.1 mg/ml creatine kinase, pH 7.5; …. The conditions noted are these: both partners purified.
For the molecule B1, the Ki was 130 ± 20 µM.
With B2, the Ki was determined as 36 ± 5 µM.
For the molecule B3, the Ki is 36 ± 6 µM.
